T1: TTHB099 (Thermus thermophilus HB8, UniProt Q53W63 1-195)
T1 sequence: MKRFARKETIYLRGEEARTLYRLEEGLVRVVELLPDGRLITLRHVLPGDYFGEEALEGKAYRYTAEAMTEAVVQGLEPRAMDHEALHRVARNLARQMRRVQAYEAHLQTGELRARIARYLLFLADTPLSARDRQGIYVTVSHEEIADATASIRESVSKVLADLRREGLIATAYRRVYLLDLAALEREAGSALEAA


Each binder was assayed against T1, TTHB099 (assay: BLI; up to 450 nM TTHB099; Buffer, salt, pH and temperature not given (as previously described); BLI 17, 50, 150, 450 nM TTHB099 on streptavidin sensors; EMSA 0-42.2 nM TTHB099). Settings: protein: recombinant; label: 5' biotin.

Row | Binder | binding result
1 | TTHA0374 site (dsDNA) DNA 1: AGGAATTCGTGCAGAGGTGAATAGTGATGTAAACTAAATTACCATCCCTCCAGAAGCTTG DNA 2: CAAGCTTCTGGAGGGATGGTAATTTAGTTTACATCACTATTCACCTCTGCACGAATTCCT | no binding
2 | ST2_REPSAis control (dsDNA) DNA 1: CTAGGAATTCGTGCAGAGGTGAATCGTCATAGAATTCGTTACCATCCCTCCAGAAGCTTGGAC DNA 2: GTCCAAGCTTCTGGAGGGATGGTAACGAATTCTATGACGATTCACCTCTGCACGAATTCCTAG | no binding

These binders were tested against T1, TTHB099 (assay: BLI; Buffer, salt, pH and temperature not given (as previously described); BLI 17, 50, 150, 450 nM TTHB099 on streptavidin sensors; EMSA 0-42.2 nM TTHB099). Settings: protein: recombinant; label: 5' biotin.

Row | Binder | Kd [nM]
3 | ST2_099 m7 (dsDNA) DNA 1: AGGAATTCGTGCAGAGGTGAATTGTATTTTAGAATACATTACCATCCCTCCAGAAGCTTG DNA 2: CAAGCTTCTGGAGGGATGGTAATGTATTCTAAAATACAATTCACCTCTGCACGAATTCCT | 5.82
4 | TTHA0506/07 site (dsDNA) DNA 1: AGGAATTCGTGCAGAGGTGAATTGTTTTTCAAGATACATTACCATCCCTCCAGAAGCTTG DNA 2: CAAGCTTCTGGAGGGATGGTAATGTATCTTGAAAAACAATTCACCTCTGCACGAATTCCT | 77.6
5 | TTHA0132/33 site (dsDNA) DNA 1: AGGAATTCGTGCAGAGGTGAATTGTAAGGGAGAATAAATTACCATCCCTCCAGAAGCTTG DNA 2: CAAGCTTCTGGAGGGATGGTAATTTATTCTCCCTTACAATTCACCTCTGCACGAATTCCT | 221
6 | ST2_099 m4 (dsDNA) DNA 1: AGGAATTCGTGCAGAGGTGAATTGTCTTCTAGAATACATTACCATCCCTCCAGAAGCTTG DNA 2: CAAGCTTCTGGAGGGATGGTAATGTATTCTAGAAGACAATTCACCTCTGCACGAATTCCT | 9.56
7 | ST2_099 m6 (dsDNA) DNA 1: AGGAATTCGTGCAGAGGTGAATTGTATACTAGAATACATTACCATCCCTCCAGAAGCTTG DNA 2: CAAGCTTCTGGAGGGATGGTAATGTATTCTAGTATACAATTCACCTCTGCACGAATTCCT | 5.61
8 | TTHA0080/81 site (dsDNA) DNA 1: AGGAATTCGTGCAGAGGTGAATTGTGTTTTAGTTTACTTTACCATCCCTCCAGAAGCTTG DNA 2: CAAGCTTCTGGAGGGATGGTAAAGTAAACTAAAACACAATTCACCTCTGCACGAATTCCT | 93.2
9 | TTHA0201/02 site (dsDNA) DNA 1: AGGAATTCGTGCAGAGGTGAATTTTGTTATACGCCACATTACCATCCCTCCAGAAGCTTG DNA 2: CAAGCTTCTGGAGGGATGGTAATGTGGCGTATAACAAAATTCACCTCTGCACGAATTCCT | 780
10 | TTHB088/89 site (dsDNA) DNA 1: AGGAATTCGTGCAGAGGTGAATGGTAGCCTGGACCACATTACCATCCCTCCAGAAGCTTG DNA 2: CAAGCTTCTGGAGGGATGGTAATGTGGTCCAGGCTACCATTCACCTCTGCACGAATTCCT | 3.35
11 | ST2_099 m8 (dsDNA) DNA 1: AGGAATTCGTGCAGAGGTGAATTGTATTCAAGAATACATTACCATCCCTCCAGAAGCTTG DNA 2: CAAGCTTCTGGAGGGATGGTAATGTATTCTTGAATACAATTCACCTCTGCACGAATTCCT | 6.81
12 | ST2_099 m1 (dsDNA) DNA 1: AGGAATTCGTGCAGAGGTGAATGGTATTCTAGAATACATTACCATCCCTCCAGAAGCTTG DNA 2: CAAGCTTCTGGAGGGATGGTAATGTATTCTAGAATACCATTCACCTCTGCACGAATTCCT | 6.29
13 | ST2_099 m3 (dsDNA) DNA 1: AGGAATTCGTGCAGAGGTGAATTGAATTCTAGAATACATTACCATCCCTCCAGAAGCTTG DNA 2: CAAGCTTCTGGAGGGATGGTAATGTATTCTAGAATTCAATTCACCTCTGCACGAATTCCT | 13.8
14 | TTHA1626/27 site (dsDNA) DNA 1: AGGAATTCGTGCAGAGGTGAATGGTATGGGAAGCTACATTACCATCCCTCCAGAAGCTTG DNA 2: CAAGCTTCTGGAGGGATGGTAATGTAGCTTCCCATACCATTCACCTCTGCACGAATTCCT | 102
15 | ST2_099 m2 (dsDNA) DNA 1: AGGAATTCGTGCAGAGGTGAATTTTATTCTAGAATACATTACCATCCCTCCAGAAGCTTG DNA 2: CAAGCTTCTGGAGGGATGGTAATGTATTCTAGAATAAAATTCACCTCTGCACGAATTCCT | 33.6
16 | TTHA1911/12 site (dsDNA) DNA 1: AGGAATTCGTGCAGAGGTGAATTGTACTTGAGCATACCTTACCATCCCTCCAGAAGCTTG DNA 2: CAAGCTTCTGGAGGGATGGTAAGGTATGCTCAAGTACAATTCACCTCTGCACGAATTCCT | 65.6
17 | ST2_099 m5 (dsDNA) DNA 1: AGGAATTCGTGCAGAGGTGAATTGTACTCTAGAATACATTACCATCCCTCCAGAAGCTTG DNA 2: CAAGCTTCTGGAGGGATGGTAATGTATTCTAGAGTACAATTCACCTCTGCACGAATTCCT | 4.86
18 | TTHA1833 site (dsDNA) DNA 1: AGGAATTCGTGCAGAGGTGAATTGTAGGCCAGGCCACGTTACCATCCCTCCAGAAGCTTG DNA 2: CAAGCTTCTGGAGGGATGGTAACGTGGCCTGGCCTACAATTCACCTCTGCACGAATTCCT | 3.05
